# Data published in publication PMC5291321 (Science (New York, N.Y.), 2016).
# Where two headings read alike, the source gives them in different places.
# T1: full-length GluD2 (GluD2FL) (human, UniProt O43424 24-1007)
# T1 sequence (looked up): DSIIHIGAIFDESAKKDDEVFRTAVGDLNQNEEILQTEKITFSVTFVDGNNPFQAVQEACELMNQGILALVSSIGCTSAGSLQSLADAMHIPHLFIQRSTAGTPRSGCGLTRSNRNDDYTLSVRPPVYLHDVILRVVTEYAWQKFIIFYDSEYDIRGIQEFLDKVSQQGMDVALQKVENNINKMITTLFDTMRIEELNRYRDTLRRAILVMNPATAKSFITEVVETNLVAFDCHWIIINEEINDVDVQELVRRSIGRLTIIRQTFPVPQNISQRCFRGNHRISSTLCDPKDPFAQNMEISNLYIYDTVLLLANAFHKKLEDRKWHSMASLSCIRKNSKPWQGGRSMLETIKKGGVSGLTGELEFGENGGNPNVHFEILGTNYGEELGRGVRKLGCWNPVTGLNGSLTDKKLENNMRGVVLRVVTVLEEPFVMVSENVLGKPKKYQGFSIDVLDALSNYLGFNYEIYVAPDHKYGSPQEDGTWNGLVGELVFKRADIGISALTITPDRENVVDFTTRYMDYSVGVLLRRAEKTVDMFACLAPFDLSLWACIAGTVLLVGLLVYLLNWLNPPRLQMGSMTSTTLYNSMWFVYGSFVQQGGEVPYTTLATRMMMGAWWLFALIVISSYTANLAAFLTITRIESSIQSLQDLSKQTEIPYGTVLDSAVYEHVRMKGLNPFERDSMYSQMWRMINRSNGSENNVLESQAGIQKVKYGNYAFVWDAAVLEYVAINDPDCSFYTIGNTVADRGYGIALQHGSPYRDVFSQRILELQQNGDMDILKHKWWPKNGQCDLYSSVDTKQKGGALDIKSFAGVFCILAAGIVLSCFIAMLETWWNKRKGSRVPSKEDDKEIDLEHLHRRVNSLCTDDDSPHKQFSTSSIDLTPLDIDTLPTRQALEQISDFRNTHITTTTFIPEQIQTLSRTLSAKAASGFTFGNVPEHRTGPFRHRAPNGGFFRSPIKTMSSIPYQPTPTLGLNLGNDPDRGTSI
# B1: GluD2 amino-terminal domain (GluD2ATD) (domain or fragment, human)
# chain: DSIIHIGAIFDESAKKDDEVFRTAVGDLNQNEEILQTEKITFSVTFVDGNNPFQAVQEACELMNQGILALVSSIGCTSAGSLQSLADAMHIPHLFIQRSTAGTPRSGCGLTRSNRNDDYTLSVRPPVYLHDVILRVVTEYAWQKFIIFYDSEYDIRGIQEFLDKVSQQGMDVALQKVENNINKMITTLFDTMRIEELNRYRDTLRRAILVMNPATAKSFITEVVETNLVAFDCHWIIINEEINDVDVQELVRRSIGRLTIIRQTFPVPQNISQRCFRGNHRISSTLCDPKDPFAQNMEISNLYIYDTVLLLANAFHKKLEDRKWHSMASLSCIRKNSKPWQGGRSMLETIKKGGVSGLTGELEFGENGGNPNVHFEILGTNYGEELGRGVRKLGCWNPVTGLNGSLTDKKLENNMRG
# B2: mouse GluD1 amino-terminal domain (GluD1ATD) (domain or fragment)
# chain: DSIIHIGAIFEENAAKDDRVFQLAVSDLSLNDDILQSEKITYSIKVIEANNPFQAVQEACDLMTQGILALVTSTGCASANALQSLTDAMHIPHLFVQRNPGGSPRTACHLNPSPDGEAYTLASRPPVRLNDVMLRLVTELRWQKFVMFYDSEYDIRGLQSFLDQASRLGLDVSLQKVDKNISHVFTSLFTTMKTEELNRYRDTLRRAILLLSPQGAHSFINEAVETNLASKDSHWVFVNEEISDPEILDLVHSALGRMTVVRQIFPSAKDNQKCMRNNHRISSLLCDPQEGYLQMLQISNLYLYDSVLMLANAFHRKLEDRKWHSMASLNCIRKSTKPWNGGRSMLDTIKKGHITGLTGVMEFREDSSNPYVQFEILGTTYSETFGKDMRKLATWDSEKGLNGSLQERPMGSRLQG
# B3: full-length Cbln1 (Cbln1FL) (natural protein, human, UniProt P23435 22-193, looked up)
# chain: QNETEPIVLEGKCLVVCDSNPTSDPTGTALGISVRSGSAKVAFSAIRSTNHEPSEMSNRTMIIYFDQVLVNIGNNFDSERSTFIAPRKGIYSFNFHVVKVYNRQTIQVSLMLNGWPVISAFAGDQDVTREAASNGVLIQMEKGDRAYLKLERGNLMGGWKYSTFSGFLVFPL
# Key:
# crystal structure [1] = target: the molecule itself; assay: crystal structure
# crystal structure [2] = target: the molecule itself; assay: crystal structure; remark: listed apart in the source
# [3] = target: T1, full-length GluD2 (GluD2FL); assay: SPR
Binder,stoichiometry N (crystal structure [1]),stoichiometry N (crystal structure [2]),Kd [3] [nM]
B1,2,4,
B2,2,,
B3,,,~125
